Measured values reported in patent US20260078159A1 (CUGENE, published 2026).

Legend:
[1] = biological target: T1, recombinant human PD1 protein (human, UniProt Q15116 25-170, limits assumed); test: competition ELISA, PD1 coated, biotinylated human PD-L1-Fc at 0.5 µg/mL as competitor
Description: A non-targeting germline antibody, P-1260 (SEQ ID NOS: 171, 172 and 173) was included as the negative control. The binding ELISA procedures were outlined in Example 3. The competition ELISA followed a similar protocol. […] After 1-hour incubation at 37° C., HRP-conjugated Streptavidin (ThermoFisher) diluted to 0.1 μg/ml were added to the plate and incubate at 37° C. for 1 hour. The plate was subsequently developed using TMB (ThermoFisher) substrate. Absorbance readings were taken at 450 nm, with 630 nm as the reference wavelength. The half-maximal inhibitory concentrations (IC50) values were deduced using GraphPad Prism software.

[2] = biological target: T1, recombinant human PD1 protein; test: binding ELISA, plate-coated recombinant human PD1
Description: Antibodies of the invention were tested for their antigen binding activity by well-known methods such as enzyme-linked immunosorbent assay (ELISA). Briefly, Nunc Maxisorp plates (ThermoFisher) were coated with recombinant human PD1 protein in bicarbonate buffer, pH 9.4 (ThermoFisher), overnight at 4° C., using 1 μg of antigen per well (100 μL/well). After triple washing with PBS/0.05% Tween 20, plates were incubated with SuperBlock (ThermoFisher) for two hours at room temperature to block nonspecific binding. The PD1 antibodies, serially diluted three-fold with blocking buffer (PBS with 1% bovine serum albumin) were added to the plates (100 μL/well) post washing and incubated at room temperature for one hour. After another washing, antibodies were detected by incubating with a horseradish peroxidase (HRP)-conjugated goat anti-human IgG Fc antibody (ThermoFisher) diluted 1:5000 in blocking buffer (100 μL/well) for one hour at room temperature. After a final wash, TMB substrate (ThermoFisher) at 100 μL/well was added. Plates were sealed and left to incubate in dark for 5-20 minutes. The reaction was stopped by adding 2N sulfuric acid (Ricca Chemical) (50 μL/well), and the absorbance was measured at 450 nm with a plate reader. The curves were plotted, and the half-maximal effective concentration (EC₅₀) values were calculated using GraphPad Prism software.

human PD1 on cells [3] = biological target: T2, human PD1 on cells (human, UniProt Q15116 25-288); test: cell-based or functional assay
human PD1 on cells [4] = biological target: T2, human PD1 on cells; test: flow cytometry on PD1+ HEK293 cells, % positive cells
Description: (§1) Additionally, HEK 293T cells stably expressing human PD1 gene (Crown Bioscience) was used to determine the cell-based binding strength of the optimized PD1 antibodies by flow cytometry. After harvesting, HEK293-hPD1 cells were seeded into a 96-well U-bottom plate at 1×10⁵ cells/well (100 μL), incubated with Fc block (1:50) for 20 minutes at 4° C., and subsequently washed with FACS buffer (PBS, 1% FBS). Cells were then treated with three-fold serial dilutions of each antibody at concentrations ranging from 0.01-100 nM in FACS buffer for 30 minutes at 4° C. Subsequently, cells were washed twice with FACS buffer to remove unbound molecules, and 40 µL of the 1:100 diluted PE-labeled goat anti-human Fc secondary antibody (eBiosciences) was added to the cells. Following a 30-minute incubation at 4° C. and another double wash with FACS buffer, antibodies bound to the cells were detected with PE-labeled secondary antibody by flow cytometry (BD ACCURI-C6), and EC₅₀ values were calculated using GraphPad Prism software.

human PD1 on cells [5] = biological target: T2, human PD1 on cells; test: flow cytometry on PD1+ HEK293 cells, MFI
Description: as §1

T2 sequence (Q15116 25-288 limits assumed): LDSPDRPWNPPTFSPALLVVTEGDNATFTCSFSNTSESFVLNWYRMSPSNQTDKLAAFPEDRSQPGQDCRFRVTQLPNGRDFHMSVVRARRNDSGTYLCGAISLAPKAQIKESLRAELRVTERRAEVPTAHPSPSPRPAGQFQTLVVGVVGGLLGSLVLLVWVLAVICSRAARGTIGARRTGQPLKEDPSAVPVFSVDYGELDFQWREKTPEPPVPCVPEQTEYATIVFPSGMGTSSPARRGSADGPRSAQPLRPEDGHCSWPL
T1 sequence (Q15116 25-170 limits assumed): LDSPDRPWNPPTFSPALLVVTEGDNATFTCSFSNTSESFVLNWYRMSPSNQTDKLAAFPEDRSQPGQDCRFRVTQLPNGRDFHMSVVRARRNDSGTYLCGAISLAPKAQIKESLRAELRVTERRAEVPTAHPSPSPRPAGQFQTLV

Binder	IC50 [1] [pM]	EC50 [2] [pM]	PD1 blockade reporter assay EC50 (human PD1 on cells [3]) [pM]	EC50 (human PD1 on cells [4]) [pM]	EC50 (human PD1 on cells [5]) [pM]
P-1193 (antibody, human IgG1, kappa, V domains shown, Full-length IgG1 L234A/L235A/G237A, kappa) VH: EVQLLESGGGLVQPGGSLRLSCAASGFTFTNYYMYWVRQAPGKGLEWVSGINPSNGGTNFADKFKGRFTISRDNSKNTLYLQMNSLRAEDTAVYYCARRDYRFDMGFDYWGQGTLVTVSS VL: EIVLTQSPATLSLSPGERATLSCRASQGVSTSGYSYLHWYQQKPGQAPRLLIYLASYRESGVPARFSGSGSGTDFTLTISSLEPEDFAVYYCQHSRDLPLTFGGGTKVEIKR	–	–	–	70	259
P-1199 (antibody, human IgG1, kappa, V domains shown, Full-length IgG1 L234A/L235A/G237A, kappa) VH: EVQLLESGGGLVQPGGSLRLSCAASGFTFTNYYMYWVRQAPGKGLEWVSGINPSNGGTNFADKFKGRFTISTDSSKNTLYLQMNSLRAEDTAVYYCARRDYRFDMGFDYWGQGTLVTVSS VL: EIVLTQSPATLSLSPGERATLSCRASQGVSTSGYSYLHWYQQKPGQAPRLLIYLASYRESGVPARFSGSGSGTDFTLTISSLEPEDFAVYYCQHSRDLPLTFGGGTKVEIKR	–	–	–	16	120

Other lines, results leading:

IC50 [1] [pM]	EC50 [2] [pM]	PD1 blockade reporter assay EC50 (human PD1 on cells [3]) [pM]	EC50 (human PD1 on cells [4]) [pM]	EC50 (human PD1 on cells [5]) [pM]	Binder
1420	26.8	660	–	–	P-1271 (antibody, human IgG1, kappa, V domains shown) VH: QVQLVQSGAEVKKPGASVKVSCKASGYTFTNYYMYWVRQAPGQGLEWMGGINPSNGGTNFAQKFQGRVTLTTDSSTSTAYMELSSLRSDDTAVYYCARRDYRFDMGFDYWGQGTLVTVSS VL: EIVLTQSPATLSLSPGERATLSCRASQGVSTSGYSYLHWYQQKPGQAPRLLIYLASYRESGVPARFSGSGSGTDFTLTISSLEPEDFAVYYCQHSRDLPLTFGGGTKVEIKR
–	–	1280	33	159	P-1201 (antibody, human IgG1, kappa, V domains shown) VH: EVQLLESGGGLVQPGGSLRLSCAASGFTFTNYYMYWVRQAPGKGLEWVSGINPSNGGTNFADKFKGRFTLSTDSSKNTLYLQMNSLRAEDTAVYYCARRDYRFDMGFDYWGQGTLVTVSS VL: EIVLTQSPATLSLSPGERATLSCRASQGVSTSGYSYLHWYQQKPGQAPRLLIYLASYRESGVPARFSGSGSGTDFTLTISSLEPEDFAVYYCQHSRDLPLTFGGGTKVEIKR
